The source of these data is patent US12692324B2, “Anti-chitinase-3-like protein-1 (YKL-40) neutralizing antibody and uses thereof” (Institute of Nuclear Energy Research, Atomic Energy …, priority 2022, dated 2026).

The test system of data set [1] is human ovarian cancer cell CA5171. The note with it: for proportion of Annexin V/7-AAD-positive apoptosis: CA5171, 50 μg/mL YKL-40 neutralizing antibody and/or 2.5 nM paclitaxel, 37° C., 48 hours. Here is the method: It is important to know whether the YKL-40 neutralizing antibody of the present disclosure can induce cell apoptosis after combining with human ovarian cell CA5171. In this experiment, two specific dyes “7-amino-actinomycin D” (7-AAD) and “Annexin V” are used in the flow cytometry analysis to detect if the YKL-40 neutralizing antibody induces the cell apoptosis. In addition, the combination treatment of the chemotherapy drug paclitaxel and the YKL-40 neutralizing antibody is also analyzed in this experiment.
The experiment procedure applied herein is, firstly, to treat human ovarian cancer cell CA5171 with a final concentration of 50 μg/mL YKL-40 neutralizing antibody and/or 2.5 nM paclitaxel, then culture them at 37° C. for 48 hours. The control group is treated with normal saline. After the culturing, the cells are collected and stained with 7-AAD and FITC-conjugated annexin V (FITC, Fluorescein isothiocyanate) dyes for 30 minutes. After staining, the cells are washed by using cytometer analysis solution (normal saline with a final concentration of 0.2% fetal bovine serum and 0.5% sodium azide), and then analyzed by flow cytometry.

Data set [2] relates to CA5171 ovarian cancer cells, which overexpress chitinase-3-like protein-1. As to the kind of experiment: Nano SPECT/CT bioimaging in tumor-carried mice. The settings on record: tail vein injection. It is filed as in vivo. The text has this: In order to verify these research results in a tumor-carried animal model, the CA5171 ovarian cancer cells, which overexpress chitinase-3-like protein-1, are inoculated in the left hind limb of the experiment animals. After the tumor volume grow to 200-300 mm3, use indium-111-DTPA-YKL-40 antibody complex as a radio-diagnostic drug for tumor mapping. The method of administration of diagnostic drugs is to inject the indium-111-DTPA-YKL-40 antibody complex by tail vein injection. Three tumor-carried mice are used as the animal model in both control and treatment groups, and the cross-sections of transverse, sagittal, and coronal are then taken at different time points such as 1, 4, 24 and 48 hours after administration. The tumor-carried mice of the control group are injected with indium-111-DTPA only, without YKL-40 antibody complex. […] The accumulation of the radioactive drug can at least last for 24 hours as shown in the results.

Data set [3] concerns human ovarian cancer cell CA5171. As to the kind of experiment: Binding ability of antibody to human ovarian cancer cell CA5171 by flow cytometry. The class given is cell-based. Here is the method:
When the YKL-40 neutralizing antibody of the present disclosure is isolated and purified, its binding ability to human ovarian cell CA5171 is then evaluated by flow cytometry. In this example, the antibody of the control group and YKL-40 neutralizing antibody are respectively added to the culture of the ovarian cell CA5171. After a period of culturing, the human ovarian cell CA5171 are then analyzed by flow cytometry. Please refer to FIGS. 1A and 1B. […] From the results, the binding ability of the control group antibody IgG is 28.69%, while the binding ability of the YKL-40 neutralizing antibody is as high as 71.57%.

Entries after “also recorded” stand apart in the source; their conditions may differ.

In the case of `CC(=O)O[C@H]1C(=O)[C@@]2(C)[C@H]([C@H](OC(=O)c3ccccc3)[C@]3(O)C[C@H](OC(=O)[C@H](O)[C@@H](NC(=O)c4ccccc4)c4ccccc4)C(C)=C1C3(C)C)[C@]1(OC(C)=O)CO[C@@H]1C[C@@H]2O` [paclitaxel, reference compound], in data set [1], the “proportion of Annexin V/7-AAD-positive apoptosis” value was 43.90%±0.35%.

For the molecule `O=C([O-])CN(CCN(CC(=O)[O-])CC(=O)[O-])CCN(CC(=O)[O-])CC(=O)[O-].[111In+3].[H+].[H+]` [indium-111-DTPA], the “time the radioactive drug sustains in the abdominal organs” value in data set [2] stood at 1 h.

B1: YKL-40 neutralizing antibody: isolated neutralizing antibody specifically binding chitinase-3-like protein-1 (YKL-40); VH SEQ ID NO: 7, VL SEQ ID NO: 8 (antibody, V domains shown)
VH: QIQLVQSGPELKKPGETVRISCKASGYTFPNYGMNWVKQAPGKGLKWMGWINTYTGEPTYTVDFKGQFAFSLETSASTAYLQINNLKNEDTATYFCARSFYGTNGFDYWGQGTTLTVSS
VL: NIVMTQSPKSMSMSVGERVTLSCKASENVGTYVSWYQQKPEQSPKLVIYGASNRYIGVPDRFTGSGSATDFTLTISSVEAEDLADYHCGQSYSYPPTFGGGTKLEIK
modifications: recombinant YKL-40 neutralizing antibody
Regarding B1, in data set [1], the “cytotoxicity (in words)” value is given as “not observed to be cytotoxic” and the “proportion of Annexin V/7-AAD-positive apoptosis” value was 3.91±0.11%. In data set [3] (human ovarian cell CA5171), this molecule yielded a binding ability of 71.57%. Besides, the “binding to CA5171 cells (in words)” value in data set [3] (versus control IgG antibody) is listed as “stronger binding ability to CA5171 ovarian cells than the control group; also recorded: can significantly bind to human ovarian cancer cell CA5171”.
